Test results: US20040197818A1 (UNIVERSITY OF UTAH RESEARCH FOUNDATION, published 2004)
Where a chain is given by its changes, count along the chain named. Numbers in names are those of the source.

B1: rMiRP1 (other)
chain: MTTLANLTQTLEDAFKKVFITYMDSWRRNTTAEQQALQARVDAENFYYVILYLMVMIGMFAFIVVAILVSTVKSKRREHSQDPYHQYIVEDWQQKYRSQILHLEDSKATIHENLGATGFTVSP
modifications: 35S-methionine label in the in vitro binding assay
B2: wild type human MiRP1 (other)
chain: MSTLSNFTQTLEDVFRRIFITYMDNWRQNTTAEQEALQAKVDAENFYYVILYLMVMIGMFSFIIVAILVSTVKSKRREHSNDPYHQYIVEDWQEKYKSQILNLEESKATIHENIGAAGFKMSP
B3: M54T-hMiRP1 (other)
chain: B2 chain with M54T
B4: T8A-hMiRP1 (other)
chain: B2 chain with T8A
B5: Q9E-hMiRP1 (other)
chain: B2 chain with Q9E

Columns and labels:
[1] = target: T1, HERG (human, UniProt Q12809 1-1159); experiment: cell-based or functional assay
T1 sequence (Q12809 whole entry): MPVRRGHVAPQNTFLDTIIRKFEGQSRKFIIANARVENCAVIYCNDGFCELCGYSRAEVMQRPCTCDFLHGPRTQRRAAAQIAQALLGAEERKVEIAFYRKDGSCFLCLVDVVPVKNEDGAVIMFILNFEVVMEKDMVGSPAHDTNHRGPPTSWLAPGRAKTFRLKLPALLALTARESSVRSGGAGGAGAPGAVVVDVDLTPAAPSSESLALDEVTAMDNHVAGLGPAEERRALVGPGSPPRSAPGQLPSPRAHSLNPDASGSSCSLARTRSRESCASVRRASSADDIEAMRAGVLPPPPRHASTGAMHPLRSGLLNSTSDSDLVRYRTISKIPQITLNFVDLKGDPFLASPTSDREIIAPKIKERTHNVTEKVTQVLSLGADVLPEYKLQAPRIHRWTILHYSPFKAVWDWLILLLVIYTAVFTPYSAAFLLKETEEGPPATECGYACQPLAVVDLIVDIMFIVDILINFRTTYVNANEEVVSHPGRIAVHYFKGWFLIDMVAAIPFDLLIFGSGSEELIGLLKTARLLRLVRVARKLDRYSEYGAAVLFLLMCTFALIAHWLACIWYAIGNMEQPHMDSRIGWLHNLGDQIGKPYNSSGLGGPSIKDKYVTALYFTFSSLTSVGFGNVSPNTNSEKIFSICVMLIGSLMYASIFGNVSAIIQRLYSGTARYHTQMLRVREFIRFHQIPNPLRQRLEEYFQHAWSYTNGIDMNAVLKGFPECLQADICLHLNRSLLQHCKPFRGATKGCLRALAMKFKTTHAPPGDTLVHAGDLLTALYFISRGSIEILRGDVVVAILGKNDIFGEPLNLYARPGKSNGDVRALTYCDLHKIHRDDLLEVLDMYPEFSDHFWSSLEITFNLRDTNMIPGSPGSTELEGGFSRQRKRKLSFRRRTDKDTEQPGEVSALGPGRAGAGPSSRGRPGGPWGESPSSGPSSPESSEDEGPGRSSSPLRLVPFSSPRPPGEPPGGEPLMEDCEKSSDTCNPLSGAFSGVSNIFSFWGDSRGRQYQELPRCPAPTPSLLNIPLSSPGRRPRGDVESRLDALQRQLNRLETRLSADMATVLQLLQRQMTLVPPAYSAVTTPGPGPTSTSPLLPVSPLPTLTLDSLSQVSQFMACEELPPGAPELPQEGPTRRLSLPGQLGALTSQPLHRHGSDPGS

[2] = target: T1, HERG; experiment: cell-based or functional assay; remark: listed apart in the source

| Binder | deactivation rate, oocytes [1] | deactivation rate, plasma-like ionic conditions, whole-cell [1] | deactivation rate at -120 mV, CHO cells [1] | activation V1/2 [2] | deactivation fast time constant [2] | deactivation ratio If/(Is + If) [2] | deactivation slow time constant [2] | deactivation rate against channels with wild type hMiRP1 [1] |
| --- | --- | --- | --- | --- | --- | --- | --- | --- |
| B1 | 7 fold | ~2 fold |  |  |  |  |  |  |
| B2 |  |  | ~3 fold | -21 mV | 80 | 0.82 | 483 |  |
| B3 |  |  |  | -21 mV | 37 | 0.81 | 266 | ~3 fold |
| B4 |  |  |  | -29 mV | 100 | 0.83 | 590 |  |
| B5 |  |  |  | -12 mV | 100 | 0.8 | 750 |  |
